Experimental data reported in publication PMC9758440.

Biological target: N-terminal SNAP-tagged FGFR1c on the surface of stable COS7 cells (human) (UniProt P11362)
Experiment: FRET or BRET

Substance: N-terminal SNAP-tagged FGFR1c on the surface of stable COS7 cells (from UniProt P11362 22-822) (receptor)
- fold increase of the TR-FRET signal with FGF2: 2.8 fold
